Test results as given in US20210403582A1 (JACOBIO PHARMACEUTICALS, published 2021).

Columns and labels:
human LIF protein [1] = target: T1, human LIF protein (human, UniProt P15018 23-202); assay: competition ELISA: human LIF coated at 1 µg/mL, GP130-Fc 12 µg/mL added together with the antibody, HRP anti-human Fc, A450
T1 construct: Bought recombinant protein (Sino Biological / Yiqiao Shenzhou 14890-HNAH) in most assays; also called recombinant human LIF protein; rhLIF

human OSM = target: T2, human OSM (human, UniProt P13725 26-221, limits assumed); assay: ELISA, human OSM coated at 1 µg/mL, A450
T2 sequence (looked up): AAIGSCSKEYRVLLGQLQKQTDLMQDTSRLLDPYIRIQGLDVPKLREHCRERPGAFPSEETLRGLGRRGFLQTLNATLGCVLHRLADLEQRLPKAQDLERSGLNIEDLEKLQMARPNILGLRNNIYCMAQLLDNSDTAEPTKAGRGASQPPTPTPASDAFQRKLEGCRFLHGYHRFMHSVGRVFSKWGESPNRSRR
Description: (§1) The human LIF, human IL-6, human OSM, human CNTF (purchased from Sino biological) were coated on the enzyme label plate at a concentration of 1 μg/mL separately, and the anti-human LIF antibodies 38E10E1C11, P36-033 and 5D8 at different concentrations were added separately and incubated for 1 h at room temperature. Then the plates were washed four times with PBST and incubated with HRP-labeled goat anti-mouse FC secondary antibody for 1 h at room temperature. Then the plates were washed four times with PBST and added with TMB colored solution for color development at room temperature for 10 minutes. The absorption value at 450 nm is quantitated by the enzyme-labeling measuring instrument, and the data was analyzed and plotted using Origin pro 9 software.

human IL-6 = human IL-6 (human, UniProt P05231 30-212, limits assumed); assay: ELISA, human IL-6 coated at 1 µg/mL, A450
human IL-6, sequence (P05231 30-212 limits assumed): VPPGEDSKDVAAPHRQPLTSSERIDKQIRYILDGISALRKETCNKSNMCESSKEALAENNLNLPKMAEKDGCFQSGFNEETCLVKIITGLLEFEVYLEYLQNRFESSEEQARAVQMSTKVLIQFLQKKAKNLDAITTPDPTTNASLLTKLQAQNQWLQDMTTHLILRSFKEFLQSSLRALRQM
Description: as §1

human CNTF = target: T3, human CNTF (human, UniProt P26441 1-200, limits assumed); assay: ELISA, human CNTF coated at 1 µg/mL, A450
T3 sequence (looked up): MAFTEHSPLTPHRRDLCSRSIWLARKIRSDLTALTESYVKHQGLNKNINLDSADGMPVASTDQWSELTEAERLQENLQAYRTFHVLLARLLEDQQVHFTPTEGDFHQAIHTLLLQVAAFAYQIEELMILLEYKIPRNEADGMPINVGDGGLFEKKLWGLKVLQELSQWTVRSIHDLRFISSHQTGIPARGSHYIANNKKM
Description: as §1

human LIF protein [2] = target: T1, human LIF protein; assay: ELISA, human LIF coated at 1 µg/mL, A450
Description: The recombinant human LIF protein was diluted to 1 μg/mL, was coated on the enzyme label plate, 100 μL of the protein was added into every well, and incubated overnight in 4° C. The enzyme label plates were taken out next day, and the liquid was discarded, and were washed with PBST three times and blocked with 2% BSA in PBS for 1 h at room temperature, then washed with PBST three times, and added anti-human LIF antibodies 38E10E1C11, 5D8 and P36-033 at different concentrations and incubated for 1 h at room temperature. The liquid was discarded, and the plates were washed with PBST four times. The plates were added with HRP-labeled goat anti-mouse Fab antibody or goat anti-human FC antibody and incubated for 1 h at room temperature. Then the liquid was discarded, and the plates were washed four times with PBST and incubated with TMB colored solution in 10 minutes at room temperature. Stop color development by adding 2 mol/L H₂SO₄, and the absorption value at 450 nm is quantitated using an automated plate photometer, and the results were shown in FIG. 1.

[3] = target: recombinant mouse LIF protein (mouse, UniProt P09056 24-203); assay: ELISA, mouse LIF coated at 1 µg/mL, A450
Description: The recombinant mouse LIF protein (purchased from ACRO Biosystems) was diluted to 1 μg/mL, and was coated on the enzyme label plate, 100 μL of protein was added into every well, and incubated overnight in 4° C. The enzyme label plates were taken out next day, and the liquid was discarded, and were washed with PBST three times and blocked with 2% BSA in PBS for 1 h at room temperature, then washed with PBST three times, and added anti-human LIF antibodies 38E10E1C11, 5D8 and P36-033 at different concentrations and incubated for 1 h at room temperature. The liquid was discarded, and the plates were washed with PBST four times. The plates were added with HRP-labeled goat anti-mouse Fab antibody or goat anti-human FC antibody and incubated for 1 h at room temperature. Then the liquid was discarded, and the plates were washed four times with PBST and incubated with TMB colored solution in 10 minutes at room temperature. Stop color development by adding 2 mol/L H₂SO₄, and the absorption value at 450 nm is quantitated using an automated plate photometer, and the results were shown in FIG. 2.

human LIF protein [4] = target: T1, human LIF protein; assay: competition ELISA: human LIF coated at 1 µg/mL, GP130-Fc 20 µg/mL added together with the antibody, A450
Description: The recombinant human LIF protein was coated on the enzyme label plates at a concentration of 1 μg/mL, GP130 protein (expressed fusedly with human FC) at a concentration of 20 μg/mL was added (50 μL/well), and the anti-human LIF antibodies P36-033 and 38E10E1C11 at different concentrations simultaneously were added separately (50 μL/well), and incubated for 2 h at room temperature. At the same time, the control wells added with antibodies and without GP130 protein were set. Incubated for 2 h at room temperature. After washed four times with PBST, incubated with HRP-labeled goat anti-mouse FC secondary antibody for 1 h at room temperature. Then the plates were washed four times with PBST and added with TMB coloured solution in for 10 minutes. The absorption value at 450 nm is quantitated using an enzyme-labelling measuring instrument, and the data was analyzed and plotted using Origin pro 9 software.

T1 sequence (P15018 23-202 limits assumed): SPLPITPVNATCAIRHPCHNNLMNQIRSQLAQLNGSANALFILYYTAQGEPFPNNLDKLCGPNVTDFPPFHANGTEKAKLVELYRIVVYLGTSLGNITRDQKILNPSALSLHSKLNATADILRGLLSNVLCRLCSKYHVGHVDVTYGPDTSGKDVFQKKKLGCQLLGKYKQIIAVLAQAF

B1: P36-033 antibody (antibody, mouse IgG1, kappa, V domains shown)
VH: EVMLVESGGGLVQPGGSRRLSCAASGFTFSSYPMFWVRQTPEKRMEWVAYISNGGDSTYYPDTVKGRFTVSRDNAKNTLYLQMSSLKSVDTAIYYCVRPSARYDEWFAYWGQGTLVTVSA
VL: DIVMTQSHKFMSTSVGDRVSITCKASQDVSNAVAWYQQKPGQSPRLLIYWASFRHTGVPDRFTGSGSGTEYTLTISRVQAEDLALYYCQQHYNTPYTFGGGTRLEIKR
notes: From a phage display library of immunised mice; full-length chains with mouse constant regions; also called P36-033 mAb
IC50 (read off the curve) (human LIF protein [1]): ~0.1 µg/mL | binding result (human OSM): no binding (tested: 25 ug/ml) | binding result (human IL-6): no binding (tested: 25 ug/ml) | binding result (human CNTF): no binding (tested: 25 ug/ml) | EC50 (read off the curve) (human LIF protein [2]): ~0.05 µg/mL | binding result [3]: binds | IC50 (read off the curve) (human LIF protein [4]): ~0.1 µg/mL
